The data set is described as follows: background-corrected fluorescence of 3'-dye-labeled ssDNA relative to brightest sequence (3'-GCGCG) (fraction); higher = brighter dye fluorescence (less quenching). Put shortly: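 Fluorescence values are background-corrected using unlabeled oligos and expressed relative to the brightest sequence. The single-stranded DNA was made on glass slides by light-directed phosphoramidite synthesis, each of 1024 permuted pentamers ending beside a 3' Cy3 or Cy5 dye. Scans at 532 or 635 nm were taken before and after overnight ethylenediamine/ethanol deprotection, and each value averages 10 features per array and at least 3 syntheses.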

Experimental findings from the supplement of paper PMC9428881 are described below.

± gives the standard error.

Consider “TTTTTTGAGCATCATGCTGCTTTTTTTTTTTTTTTCTGAA [AAGTC]”, for which the background-corrected fluorescence runs as follows: (dye: Cy3 (3' terminal)) 0.575 ± 0.026; (dye: Cy5 (3' terminal)) 0.514 ± 0.029.

With “TTTTTTGAGCATGAGCAGCATTTTTTTTTTTTTTTCTCTT”, the background-corrected fluorescence was determined as 0.49 ± 0.0076 (dye: Cy3 (3' terminal)) and 0.334 ± 0.024 (dye: Cy5 (3' terminal)).

For “TTTTTTGAGCATGAGCATCATTTTTTTTTTTTTTTCTCTG [GTCTC]”, the background-corrected fluorescence is 0.48 ± 0.018 (dye: Cy3 (3' terminal)) and 0.352 ± 0.033 (dye: Cy5 (3' terminal)).

In the case of “TTTTTTGAGCATGAGCATGATTTTTTTTTTTTTTTCTCTC”, the background-corrected fluorescence is, setting by setting: (dye: Cy3 (3' terminal)) 0.357 ± 0.036; (dye: Cy5 (3' terminal)) 0.284 ± 0.019.

As to “TTTTTTGAGCATGAGCATGCTTTTTTTTTTTTTTTCTCTA [ATCTC]”, the background-corrected fluorescence stood at 0.483 ± 0.0051 (dye: Cy3 (3' terminal)) and 0.36 ± 0.023 (dye: Cy5 (3' terminal)).

As to “TTTTTTGAGCATGATCAGCATTTTTTTTTTTTTTTCTCGT [TGCTC]”, the background-corrected fluorescence reads like this: (dye: Cy3 (3' terminal)) 0.567 ± 0.015; (dye: Cy5 (3' terminal)) 0.416 ± 0.024.

“TTTTTTGAGCATGATCATCATTTTTTTTTTTTTTTCTCGG [GGCTC]”: the background-corrected fluorescence (dye: Cy3 (3' terminal)) amounted to 0.641 ± 0.034 and the background-corrected fluorescence (dye: Cy5 (3' terminal)) is 0.508 ± 0.037.

In the case of “TTTTTTGAGCATGATCATGATTTTTTTTTTTTTTTCTCGC [CGCTC]”, the background-corrected fluorescence stood at 0.548 ± 0.032 (dye: Cy3 (3' terminal)) and 0.412 ± 0.035 (dye: Cy5 (3' terminal)).

For “TTTTTTGAGCATGATCATGCTTTTTTTTTTTTTTTCTCGA [AGCTC]”, the background-corrected fluorescence is, setting by setting: (dye: Cy3 (3' terminal)) 0.599 ± 0.011; (dye: Cy5 (3' terminal)) 0.49 ± 0.03.

For the sequence “TTTTTTGAGCATGATGAGCATTTTTTTTTTTTTTTCTCCT [TCCTC]”, the background-corrected fluorescence is, setting by setting: (dye: Cy3 (3' terminal)) 0.41 ± 0.018; (dye: Cy5 (3' terminal)) 0.33 ± 0.032.

On to “TTTTTTGAGCATGATGATCATTTTTTTTTTTTTTTCTCCG [GCCTC]”, for which the background-corrected fluorescence amounted to 0.531 ± 0.02 (dye: Cy3 (3' terminal)) and 0.426 ± 0.028 (dye: Cy5 (3' terminal)).

Regarding “TTTTTTGAGCATGATGATGATTTTTTTTTTTTTTTCTCCC [CCCTC]”, the background-corrected fluorescence was determined as 0.377 ± 0.029 (dye: Cy3 (3' terminal)) and 0.269 ± 0.018 (dye: Cy5 (3' terminal)).

As for “TTTTTTGAGCATGATGATGCTTTTTTTTTTTTTTTCTCCA [ACCTC]”, the background-corrected fluorescence is, setting by setting: (dye: Cy3 (3' terminal)) 0.441 ± 0.019; (dye: Cy5 (3' terminal)) 0.356 ± 0.055.

In the case of “TTTTTTGAGCATGATGCGCATTTTTTTTTTTTTTTCTCAT [TACTC]”, the background-corrected fluorescence reads like this: (dye: Cy3 (3' terminal)) 0.513 ± 0.018; (dye: Cy5 (3' terminal)) 0.378 ± 0.019.

Regarding “TTTTTTGAGCATGATGCTCATTTTTTTTTTTTTTTCTCAG [GACTC]”, the background-corrected fluorescence runs as follows: (dye: Cy3 (3' terminal)) 0.517 ± 0.024; (dye: Cy5 (3' terminal)) 0.389 ± 0.03.

“TTTTTTGAGCATGATGCTGATTTTTTTTTTTTTTTCTCAC [CACTC]”: the background-corrected fluorescence worked out at 0.391 ± 0.046 (dye: Cy3 (3' terminal)) and 0.314 ± 0.022 (dye: Cy5 (3' terminal)).

Regarding “TTTTTTGAGCATGATGCTGCTTTTTTTTTTTTTTTCTCAA [AACTC]”, the background-corrected fluorescence was 0.52 ± 0.042 (dye: Cy3 (3' terminal)) and 0.395 ± 0.02 (dye: Cy5 (3' terminal)).

“TTTTTTGAGCATGCGCAGCATTTTTTTTTTTTTTTCTATT [TTATC]”: the background-corrected fluorescence (dye: Cy3 (3' terminal)) came out at 0.527 ± 0.047 and the background-corrected fluorescence (dye: Cy5 (3' terminal)) stood at 0.402 ± 0.056.

In the case of “TTTTTTGAGCATGCGCATCATTTTTTTTTTTTTTTCTATG [GTATC]”, the background-corrected fluorescence reads like this: (dye: Cy3 (3' terminal)) 0.564 ± 0.015; (dye: Cy5 (3' terminal)) 0.383 ± 0.029.

As to “TTTTTTGAGCATGCGCATGATTTTTTTTTTTTTTTCTATC”, the background-corrected fluorescence is 0.373 ± 0.025 (dye: Cy3 (3' terminal)) and 0.309 ± 0.018 (dye: Cy5 (3' terminal)).

As for “TTTTTTGAGCATGCGCATGCTTTTTTTTTTTTTTTCTATA [ATATC]”, the background-corrected fluorescence was 0.527 ± 0.018 (dye: Cy3 (3' terminal)) and 0.411 ± 0.023 (dye: Cy5 (3' terminal)).

Consider “TTTTTTGAGCATGCTCAGCATTTTTTTTTTTTTTTCTAGT [TGATC]”, for which the background-corrected fluorescence is, setting by setting: (dye: Cy3 (3' terminal)) 0.612 ± 0.019; (dye: Cy5 (3' terminal)) 0.451 ± 0.029.

“TTTTTTGAGCATGCTCATCATTTTTTTTTTTTTTTCTAGG [GGATC]”: the background-corrected fluorescence (dye: Cy3 (3' terminal)) stood at 0.647 ± 0.019 and the background-corrected fluorescence (dye: Cy5 (3' terminal)) is 0.507 ± 0.036.

As for “TTTTTTGAGCATGCTCATGATTTTTTTTTTTTTTTCTAGC [CGATC]”, the background-corrected fluorescence amounted to 0.508 ± 0.033 (dye: Cy3 (3' terminal)) and 0.407 ± 0.04 (dye: Cy5 (3' terminal)).

For the sequence “TTTTTTGAGCATGCTCATGCTTTTTTTTTTTTTTTCTAGA [AGATC]”, the background-corrected fluorescence was 0.608 ± 0.035 (dye: Cy3 (3' terminal)) and 0.529 ± 0.026 (dye: Cy5 (3' terminal)).

Turning to “TTTTTTGAGCATGCTGAGCATTTTTTTTTTTTTTTCTACT [TCATC]”, the background-corrected fluorescence is, setting by setting: (dye: Cy3 (3' terminal)) 0.454 ± 0.0046; (dye: Cy5 (3' terminal)) 0.33 ± 0.024.

“TTTTTTGAGCATGCTGATCATTTTTTTTTTTTTTTCTACG [GCATC]” showed a background-corrected fluorescence (dye: Cy3 (3' terminal)) of 0.565 ± 0.027 and a background-corrected fluorescence (dye: Cy5 (3' terminal)) of 0.416 ± 0.022.

Take “TTTTTTGAGCATGCTGATGATTTTTTTTTTTTTTTCTACC [CCATC]”: the background-corrected fluorescence is, setting by setting: (dye: Cy3 (3' terminal)) 0.375 ± 0.032; (dye: Cy5 (3' terminal)) 0.284 ± 0.016.

Consider “TTTTTTGAGCATGCTGATGCTTTTTTTTTTTTTTTCTACA [ACATC]”, for which the background-corrected fluorescence reads like this: (dye: Cy3 (3' terminal)) 0.498 ± 0.043; (dye: Cy5 (3' terminal)) 0.364 ± 0.024.
